The values that follow come from patent publication US20100098696A1 (Eli Lilly, published 2010).

Read-outs that look alike come from different tables or passages of the source.

The target of assay [1] is T1, Human FGFR-3(IIIb) (human, UniProt P22607-2 23-377, limits assumed).
T1 construct: The construct in the BiaCore experiment is not described; it is probably recombinant ECD-Fc; also called b-splice form of human FGFR-3
T1 sequence (looked up): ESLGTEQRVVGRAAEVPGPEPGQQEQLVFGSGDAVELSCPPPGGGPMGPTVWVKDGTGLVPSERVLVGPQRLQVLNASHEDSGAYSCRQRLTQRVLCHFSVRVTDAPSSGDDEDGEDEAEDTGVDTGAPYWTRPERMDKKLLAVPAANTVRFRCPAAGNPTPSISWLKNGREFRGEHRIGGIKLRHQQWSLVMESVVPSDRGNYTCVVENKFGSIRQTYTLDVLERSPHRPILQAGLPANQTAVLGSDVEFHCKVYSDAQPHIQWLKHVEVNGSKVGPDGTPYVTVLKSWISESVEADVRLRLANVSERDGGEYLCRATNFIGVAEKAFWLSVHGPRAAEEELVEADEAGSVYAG
Kind of assay: BiaCore 3000 SPR, room temperature. (SPR reads the build-up and loss of mass on a sensor chip optically.)

The target in assay [2] is T2, FGFR-3(IIIb) truncate D1 (25-148)-Fc (human, UniProt P22607 25-148).
T2 construct: range 25-148; Homodimeric Fc fusion; not shown: human Fc tag of the pGS-Fc vector
T2 sequence: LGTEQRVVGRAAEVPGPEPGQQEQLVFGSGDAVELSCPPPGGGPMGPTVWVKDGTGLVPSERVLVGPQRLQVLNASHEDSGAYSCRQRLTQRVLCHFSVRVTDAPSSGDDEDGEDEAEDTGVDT
Kind of assay: Mesoscale binding assay and BIAcore.

Assay [3] has as its target T3, FGFR-3(IIIb) truncate D3 (250-372)-Fc (human, UniProt P22607-2 250-372).
T3 construct: range 250-372; Homodimeric Fc fusion; not shown: human Fc tag of the pGS-Fc vector
T3 sequence (looked up): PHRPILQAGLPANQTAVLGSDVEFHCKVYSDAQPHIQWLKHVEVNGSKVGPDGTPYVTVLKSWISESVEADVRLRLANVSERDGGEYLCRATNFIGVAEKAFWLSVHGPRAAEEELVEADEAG
Nature of the assay: Mesoscale binding assay and BIAcore.

Assay [4] has as its target T1, Human FGFR-3(IIIb). Nature of the assay: BiaCore 3000 SPR, room temperature. The source holds these as a separate data set.
Assay [5] addresses T4, FGFR-3(IIIb) or (IIIc) ECD (extracellular domain) Fc tagged soluble recombinant protein (human, UniProt P22607 23-375).
T4 construct: extracellular domain; also called recombinant human FGFR-Fc; not shown: Fc tag
T4 sequence (looked up): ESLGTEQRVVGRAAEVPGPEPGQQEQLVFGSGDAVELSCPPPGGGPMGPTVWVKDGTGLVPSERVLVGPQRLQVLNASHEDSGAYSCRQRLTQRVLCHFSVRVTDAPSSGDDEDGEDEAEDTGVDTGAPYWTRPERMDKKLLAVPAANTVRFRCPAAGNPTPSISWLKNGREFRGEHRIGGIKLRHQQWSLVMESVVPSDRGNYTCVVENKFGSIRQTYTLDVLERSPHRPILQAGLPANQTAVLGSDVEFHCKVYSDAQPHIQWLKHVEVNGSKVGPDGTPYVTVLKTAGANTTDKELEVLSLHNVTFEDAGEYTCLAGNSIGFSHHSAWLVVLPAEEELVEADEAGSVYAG
Nature of the assay: ELISA blocking assay: FGFR-3 ECD-Fc (1 µg/ml) with antibody dilutions on FGF-1 coated plates; lower end of the range. The source says:
(§1) Wash plates 3 times with 0.2% Tween20/PBS. […] Blocking activities lead to decreased signals.

Assay [6] addresses T4, FGFR-3(IIIb) or (IIIc) ECD …. Kind of assay: ELISA blocking assay: FGFR-3 ECD-Fc (1 µg/ml) with antibody dilutions on FGF-1 coated plates; upper end of the range.
Source text: as §1
For orientation: ELISA stands for enzyme-linked immunosorbent assay.

B1: Antibody 1 (antibody, human IgG1, lambda)
heavy: not shown
light: QSVLTQPPSLSVAPGKTATFTCGGNNIGDKSVHWYRQKPGQAPVLVMYLDTERPSGIPERMSGSNFGNTATLTITRVEAEDEADYYCQVWDSGSDHVVFGGGTKLTVLGQPKAAPSVTLFPPSSEELQANKATLVCLISDFYPGAVTVAWKADSSPVKAGVETTTPSKQSNNKYAASSYLSLTPEQWKSHRSYSCQVTHEGSTVEKTVAPAECS
notes: Human IgG1 from a naive human Fab phage library; It was ruthenium-labelled in the Mesoscale assay and Alexa Fluor-labelled in the internalisation assay; also called FGFR-3 antibody antagonist
The Kd is the free concentration of one partner at which half of the binding sites on the other are occupied at equilibrium, for simple one-to-one binding. Lower therefore signals higher affinity. The term IC50 denotes the midpoint of a concentration-inhibition curve. For the molecule B1, the results for the dissociation constant (Kd) with Human FGFR-3(IIIb) [1] and with Human FGFR-3(IIIb) [4] were 1 nM and 0.72 nM, respectively. Besides, the binding result in assay [2] and in assay [3] was “no binding (tested: 250-0.001 nM dilution series)” each time. Further, the IC50 was no less than 1 nM in assay [5] and no more than 10 nM in assay [6].
